Test results as given in article PMC3839042.

Assays:
human S100A2 (human) = human S100A2 (human) (UniProt P29034); test: ITC
human S100B (human) = human S100B (human) (UniProt P04271); test: ITC
Sequence of human S100B (human) (P04271 whole entry): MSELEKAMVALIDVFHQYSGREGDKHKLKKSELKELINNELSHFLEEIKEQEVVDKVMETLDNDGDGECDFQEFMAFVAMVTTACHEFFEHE

Sequence of human S100A2 (human) (P29034 whole entry): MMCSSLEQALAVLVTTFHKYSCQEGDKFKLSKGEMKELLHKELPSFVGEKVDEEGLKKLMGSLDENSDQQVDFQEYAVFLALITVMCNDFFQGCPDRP

stoichiometry N (peptides per S100A2 dimer) (human S100A2 (human)): 2 | stoichiometry N (peptides per S100B dimer) (human S100B (human)): 2
Substance: TRTK12 wild-type peptide (Ac-…-NH2)
